B1: PTPN3 (Homo sapiens) (protein)
chain: MTSRLRALGGRINNIRTSELPKEKTRSEVICSIHFLDGVVQTFKVTKQDTGQVLLDMVHNHLGVTEKEYFGLQHDDDSVDSPRWLEASKAIRKQLKGGFPCTLHFRVRFFIPDPNTLQQEQTRHLYFLQLKMDICEGRLTCPLNSAVVLASYAVQSHFGDYNSSIHHPGYLSDSHFIPDQNEDFLTKVESLHEQHSGLKQSEAESCYINIARTLDFYGVELHSGRDLHNLDLMIGIASAGVAVYRKYICTSFYPWVNILKISFKRKKFFIHQRQKQAESREHIVAFNMLNYRSCKNLWKSCVEHHTFFQAKKLLPQEKNVLSQYWTMGSRNTKKSVNNQYCKKVIGGMVWNPAMRRSLSVEHLETKSLPSRSPPITPNWRSPRLRHEIRKPRHSSADNLANEMTYITETEDVFYTYKGSLAPQDSDSEVSQNRSPHQESLSENNPAQSYLTQKSSSSVSPSSNAPGSCSPDGVDQQLLDDFHRVTKGGSTEDASQYYCDKNDNGDSYLVLIRITPDEDGKFGFNLKGGVDQKMPLVVSRINPESPADTCIPKLNEGDQIVLINGRDISEHTHDQVVMFIKASRESHSRELALVIRRRAVRSFADFKSEDELNQLFPEAIFPMCPEGGDTLEGSMAQLKKGLESGTVLIQFEQLYRKKPGLAITFAKLPQNLDKNRYKDVLPYDTTRVLLQGNEDYINASYVNMEIPAANLVNKYIATQGPLPHTCAQFWQVVWDQKLSLIVMLTTLTERGRTKCHQYWPDPPDVMNHGGFHIQCQSEDCTIAYVSREMLVTNTQTGEEHTVTHLQYVAWPDHGVPDDSSDFLEFVNYVRSLRVDSEPVLVHCSAGIGRTGVLVTMETAMCLTERNLPIYPLDIVRKMRDQRAMMVQTSSQYKFVCEAILRVYEEGLVQMLDPS
B2: PTPN7 (Homo sapiens) (protein)
chain: MVQAHGGRSRAQPLTLSLGAAMTQPPPEKTPAKKHVRLQERRGSNVALMLDVRSLGAVEPICSVNTPREVTLHFLRTAGHPLTRWALQRQPPSPKQLEEEFLKIPSNFVSPEDLDIPGHASKDRYKTILPNPQSRVCLGRAQSQEDGDYINANYIRGYDGKEKVYIATQGPMPNTVSDFWEMVWQEEVSLIVMLTQLREGKEKCVHYWPTEEETYGPFQIRIQDMKECPEYTVRQLTIQYQEERRSVKHILFSAWPDHQTPESAGPLLRLVAEVEESPETAAHPGPIVVHCSAGIGRTGCFIATRIGCQQLKARGEVDILGIVCQLRLDRGGMIQTAEQYQFLHHTLALYAGQLPEEPSP
B3: SSH2 (Homo sapiens) (protein)
chain: MALVTVQRSPTPSTTSSPCASEADSGEEECRSQPRSISESFLTVKGAALFLPRGNGSSTPRISHRRNKHAGDLQQHLQAMFILLRPEDNIRLAVRLESTYQNRTRYMVVVSTNGRQDTEESIVLGMDFSSNDSSTCTMGLVLPLWSDTLIHLDGDGGFSVSTDNRVHIFKPVSVQAMWSALQSLHKACEVARAHNYYPGSLFLTWVSYYESHINSDQSSVNEWNAMQDVQSHRPDSPALFTDIPTERERTERLIKTKLREIMMQKDLENITSKEIRTELEMQMVCNLREFKEFIDNEMIVILGQMDSPTQIFEHVFLGSEWNASNLEDLQNRGVRYILNVTREIDNFFPGVFEYHNIRVYDEEATDLLAYWNDTYKFISKAKKHGSKCLVHCKMGVSRSASTVIAYAMKEYGWNLDRAYDYVKERRTVTKPNPSFMRQLEEYQGILLASKQRHNKLWRSHSDSDLSDHHEPICKPGLELNKKDITTSADQIAEVKTMESHPPIPPVFVEHMVPQDANQKGLCTKERMICLEFTSREFHAGQIEDELNLNDINGCSSGCCLNESKFPLDNCHASKALIQPGHVPEMANKFPDLTVEDLETDALKADMNVHLLPMEELTSPLKDPPMSPDPESPSPQPSCQTEISDFSTDRIDFFSALEKFVELSQETRSRSFSHSRMEELGGGRNESCRLSVVEVAPSKVTADDQRSSSLSNTPHASEESSMDEEQSKAISELVSPDIFMQSHSENAISVKEIVTEIESISQGVGQIQLKGDILPNPCHTPKKNSIHELLLERAQTPENKPGHMEQDEDSCTAQPELAKDSGMCNPEGCLTTHSSIADLEEGEPAEGEQELQGSGMHPGAKWYPGSVRRATLEFEERLRQEQEHHGAAPTCTSLSTRKNSKNDSSVADLAPKGKSDEAPPEHSFVLKEPEMSKGKGKYSGSEAGSLSHSEQNATVPAPRVLEFDHLPDPQEGPGSDTGTQQEGVLKDLRTVIPYQESETQAVPLPLPKRVEIIEYTHIVTSPNHTGPGSEIATSEKSGEQGLRKVNMEKSVTVLCTLDENLNRTLDPNQVSLHPQVLPLPHSSSPEHNRPTDHPTSILSSPEDRGSSLSTALETAAPFVSHTTHLLSASLDYLHPQTMVHLEGFTEQSSTTDEPSAEQVSWEESQESPLSSGSEVPYKDSQLSSADLSLISKLGDNTGELQEKMDPLPVACRLPHSSSSENIKSLSHSPGVVKERAKEIESRVVFQAGLTKPSQMRRSASLAKLGYLDLCKDCLPEREPASCESPHLKLLQPFLRTDSGMHAMEDQESLENPGAPHNPEPTKSFVEQLTTTECIVQSKPVERPLVQYAKEFGSSQQYLLPRAGLELTSSEGGLPVLQTQGLQCACPAPGLAVAPRQQHGRTHPLRRLKKANDKKRTTNPFYNTM
B4: PTPN2 (Homo sapiens) (protein)
chain: MPTTIEREFEELDTQRRWQPLYLEIRNESHDYPHRVAKFPENRNRNRYRDVSPYDHSRVKLQNAENDYINASLVDIEEAQRSYILTQGPLPNTCCHFWLMVWQQKTKAVVMLNRIVEKESVKCAQYWPTDDQEMLFKETGFSVKLLSEDVKSYYTVHLLQLENINSGETRTISHFHYTTWPDFGVPESPASFLNFLFKVRESGSLNPDHGPAVIHCSAGIGRSGTFSLVDTCLVLMEKGDDINIKQVLLNMRKYRMGLIQTPDQLRFSYMAIIEGAKCIKGDSSIQKRWKELSKEDLSPAFDHSPNKIMTEKYNGNRIGLEEEKLTGDRCTGLSSKMQDTMEENSESALRKRIREDRKATTAQKVQQMKQRLNENERKRKRWLYWQPILTKMGFMSVILVGAFVGWTLFFQQNAL
B5: PTPN9 (Homo sapiens) (protein)
chain: MEPATAPRPDMAPELTPEEEQATKQFLEEINKWTVQYNVSPLSWNVAVKFLMARKFDVLRAIELFHSYRETRRKEGIVKLKPHEEPLRSEILSGKFTILNVRDPTGASIALFTARLHHPHKSVQHVVLQALFYLLDRAVDSFETQRNGLVFIYDMCGSNYANFELDLGKKVLNLLKGAFPARLKKVLIVGAPIWFRVPYSIISLLLKDKVRERIQILKTSEVTQHLPRECLPENLGGYVKIDLATWNFQFLPQVNGHPDPFDEIILFSLPPALDWDSVHVPGPHAMTIQELVDYVNARQKQGIYEEYEDIRRENPVGTFHCSMSPGNLEKNRYGDVPCLDQTRVKLTKRSGHTQTDYINASFMDGYKQKNAYIGTQGPLENTYRDFWLMVWEQKVLVIVMTTRFEEGGRRKCGQYWPLEKDSRIRFGFLTVTNLGVENMNHYKKTTLEIHNTEERQKRQVTHFQFLSWPDYGVPSSAASLIDFLRVVRNQQSLAVSNMGARSKGQCPEPPIVVHCSAGIGRTGTFCSLDICLAQLEELGTLNVFQTVSRMRTQRAFSIQTPEQYYFCYKAILEFAEKEGMVSSGQNLLAVESQ

5 proteins from publication PMC9105384, “Ethyl Gallate Dual-Targeting PTPN6 and PPARγ Shows Anti-Diabetic and Anti-Obese Effects” (International Journal of Molecular Sciences, 2022) can be followed below.

Substrate in the data set: Cc1cc(=O)oc2c(F)c(OP(=O)(O)O)c(F)cc12
The data set can be described thus: purified protein, by the assay type. Also on record: DiFMUP hydrolysis by purified PTPs, fluorescence Ex355/Em460, initial rates over 10 min; Michaelis-Menten and Lineweaver-Burk Km. The method, then: The enzymatic activity of each PTP was evaluated using 6,8-difluoro-4-methylumbelliferyl phosphate (DiFMUP) as the surrogate substrate. To reach within the range of the initial rate (v0) during the measurement for 10 min, the pH and concentration of each PTP were optimized and are listed in Table S3. To determine the Km values, each PTP with optimized concentration was added to the reaction buffer (20 mM Bis-Tris at pH 6.0 or Tris at pH 7.0 and 8.0, 150 mM NaCl, 2.5 mM dithiothreitol (DTT), 0.01% Triton X-100) containing various concentrations of DiFMUP to obtain a final volume of 100 μL in a 96-well plate. Fluorescence intensities were measured once every minute for a complete 10 min duration using a Victor™ X4 Multilabel Plate Reader (Perkin Elmer, Waltham, MA, USA) at excitation/emission = 355 nm/460 nm. The initial rates of the reaction were determined using a previously described procedure for calculating the amount of product formation. To screen a library of 1033 natural products (Chengdu Biopurify Phytochemicals Ltd., Chengdu, China) against 20 PTPs, each PTP with an optimized concentration was added to the reaction buffer with an optimized pH containing DiFMUP (2 × Km for each PTP) after adding each compound (20 μM). […] The IC50 values were estimated using a sigmoid plot in GraphPad Prism 5 software (GraphPad Software Inc., San Diego, CA, USA). The Hill coefficient (nH), the degree of cooperativity, was calculated according to a previously published method. To determine the inhibition constant (Ki) and identify the inhibition mode of EG, various concentrations of EG (2.5, 5, 10, and 20 μM) were assayed with various concentrations of DiFMUP (260, 130, 65, and 32.5 μM). Kinetic parameters were obtained using Dixon plots for Ki and Lineweaver-Burk plots for the inhibition mode.
With B1, the Km amounted to 2.0 µM.
In the case of B2, the Km came out at 25.5 µM.
As for B3, the Km was 215.3 µM.
As to B4, the Km was 20.0 µM.
Consider B5, for which the Km amounted to 110 µM.
